Laboratory results reported in publication PMC12216052 (2025).

Target: Notch1(EGF1-36) (amino acids 20-1426) (human, UniProt P46531 20-1426, biotin, chemically at the N-terminus (EZ-Link Sulfo-NHS-Biotin))
Assay: SPR

Sequence of Notch1(EGF1-36) (amino acids 20-1426) (P46531 20-1426): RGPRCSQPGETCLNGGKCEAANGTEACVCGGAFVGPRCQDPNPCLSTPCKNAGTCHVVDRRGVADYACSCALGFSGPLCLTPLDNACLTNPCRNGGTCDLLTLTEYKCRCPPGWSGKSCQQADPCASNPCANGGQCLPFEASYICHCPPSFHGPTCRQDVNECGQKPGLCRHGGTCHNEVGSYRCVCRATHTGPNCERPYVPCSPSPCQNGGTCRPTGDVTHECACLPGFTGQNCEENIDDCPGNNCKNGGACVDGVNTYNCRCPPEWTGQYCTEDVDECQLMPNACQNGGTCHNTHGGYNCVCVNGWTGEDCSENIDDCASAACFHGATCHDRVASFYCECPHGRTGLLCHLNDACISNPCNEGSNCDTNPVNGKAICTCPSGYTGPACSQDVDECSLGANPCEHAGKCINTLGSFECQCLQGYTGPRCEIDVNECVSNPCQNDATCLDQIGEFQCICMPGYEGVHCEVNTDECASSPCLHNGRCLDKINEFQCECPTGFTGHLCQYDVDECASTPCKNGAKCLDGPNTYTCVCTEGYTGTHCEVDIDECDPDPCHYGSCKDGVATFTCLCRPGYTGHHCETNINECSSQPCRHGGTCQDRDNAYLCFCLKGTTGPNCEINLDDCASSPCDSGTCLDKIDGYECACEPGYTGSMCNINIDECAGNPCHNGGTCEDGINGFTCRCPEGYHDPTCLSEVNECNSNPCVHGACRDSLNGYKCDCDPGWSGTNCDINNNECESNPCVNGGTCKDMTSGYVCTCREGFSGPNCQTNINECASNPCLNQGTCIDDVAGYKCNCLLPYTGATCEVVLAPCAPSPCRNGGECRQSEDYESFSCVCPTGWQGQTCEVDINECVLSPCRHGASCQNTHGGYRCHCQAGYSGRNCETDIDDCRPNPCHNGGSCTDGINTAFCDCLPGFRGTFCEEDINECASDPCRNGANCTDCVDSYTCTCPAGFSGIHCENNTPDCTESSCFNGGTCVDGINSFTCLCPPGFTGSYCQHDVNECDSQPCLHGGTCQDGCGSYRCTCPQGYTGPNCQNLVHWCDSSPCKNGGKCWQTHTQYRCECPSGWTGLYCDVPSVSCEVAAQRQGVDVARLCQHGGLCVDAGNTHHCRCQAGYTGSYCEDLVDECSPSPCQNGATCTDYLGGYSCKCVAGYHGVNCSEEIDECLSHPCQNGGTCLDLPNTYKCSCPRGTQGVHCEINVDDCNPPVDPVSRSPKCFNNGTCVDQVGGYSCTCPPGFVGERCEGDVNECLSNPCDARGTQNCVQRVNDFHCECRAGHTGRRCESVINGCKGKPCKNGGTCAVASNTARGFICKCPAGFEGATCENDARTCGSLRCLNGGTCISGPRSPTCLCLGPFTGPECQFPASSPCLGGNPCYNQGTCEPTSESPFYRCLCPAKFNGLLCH

B1: Human DLL4 (N-EGF5, amino acids 27-400) (domain or fragment)
chain: SGVFQLQLQEFINERGVLASGRPCEPGCRTFFRVCLKHFQAVVSPGPCTFGTVSTPVLGTNSFAVRDDSSGGGRNPLQLPFNFTWPGTFSLIIEAWHAPGDDLRPEALPPDALISKIAIQGSLAVGQNWLLDEQTSTLTRLRYSYRVICSDNYYGDNCSRLCKKRNDHFGHYVCQPDGNLSCLPGWTGEYCQQPICLSGCHEQNGYCSKPAECLCRPGWQGRLCNECIPHNGCRHGTCSTPWQCTCDEGWGGLFCDQDLNYCTHHSPCKNGATCSNSGQRSYTCTCRPGYTGVDCELELSECDSNPCRNGGSCKDQEDGYHCLCPPGYYGLHCEHSTLSCADSPCFNGGSCRERNQGANYACECPPNFTGSNCE
Kd: 7.7 µM
